From patent US20220372154A1 (APEXIGEN, published 2022)
Residue numbers refer to the chain shown, from its start.

Legend:
[1] = target: T1, TNFR2 (as used in the Octet measurement) (UniProt P20333 23-257, limits assumed); assay: Octet (BLI), monovalent binding
T1 construct: Probably human soluble TNFR2; the legend says only TNFR2
T1 sequence (looked up): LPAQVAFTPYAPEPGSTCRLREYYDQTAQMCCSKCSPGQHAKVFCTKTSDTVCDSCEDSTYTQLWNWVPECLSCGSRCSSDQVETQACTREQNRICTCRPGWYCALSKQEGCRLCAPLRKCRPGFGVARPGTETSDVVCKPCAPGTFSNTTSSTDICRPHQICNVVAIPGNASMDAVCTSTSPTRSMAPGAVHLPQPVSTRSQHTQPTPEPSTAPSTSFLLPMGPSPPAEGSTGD

[2] = target: T2, human TNFR2 expressed on cells (human, UniProt P20333 23-461); assay: cell binding on TNFR2-overexpressing (OE) cells
T2 construct: whole, on cells; also called hTNFR2 (cell); CHO-TNFR2
T2 sequence (looked up): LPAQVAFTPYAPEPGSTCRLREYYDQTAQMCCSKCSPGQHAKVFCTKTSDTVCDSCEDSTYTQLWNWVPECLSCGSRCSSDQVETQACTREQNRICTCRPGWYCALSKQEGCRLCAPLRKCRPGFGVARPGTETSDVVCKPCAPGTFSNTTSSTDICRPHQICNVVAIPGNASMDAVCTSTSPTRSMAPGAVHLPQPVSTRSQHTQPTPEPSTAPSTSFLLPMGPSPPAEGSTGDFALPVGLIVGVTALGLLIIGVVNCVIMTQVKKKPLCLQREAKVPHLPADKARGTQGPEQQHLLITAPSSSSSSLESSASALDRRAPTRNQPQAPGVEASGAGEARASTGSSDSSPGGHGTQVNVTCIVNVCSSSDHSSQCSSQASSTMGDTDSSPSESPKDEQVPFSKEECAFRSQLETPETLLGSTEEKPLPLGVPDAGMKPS

[3] = target: T3, human TNFR2-His tagged protein (soluble) (human, UniProt P20333 23-257); assay: ELISA, soluble human TNFR2
T3 construct: also called hTNFR2 (soluble); soluble TNFR2-His; not shown: His tag
T3 sequence (looked up): T1 sequence (looked up)

CD40 = CD40 (UniProt P25942 21-193, limits assumed); assay: ELISA on coated CD40, OD 650 nm
Method: (§1) To test binding to TNFR family members, target proteins were coated on ELISA plates at 1 μg/mL at 4° C. overnight. Plates were washed, blocked, and antibodies were added at indicated concentrations for 1 hour at RT. Positive control antibodies for each protein were used at ˜1 ug/mL. Antibodies were washed and detected with anti-human IgG HRP for 1 hour. Assay was developed using TMB substrate for 10 minutes. For cell-binding, human CD4+ T cells purified from buffy coats were cultured in flat-bottom plates with anti-CD3/CD28 for 24 hours. Cells were harvested and stained for viability, CD4, CD25 and FOXP3. Test antibody staining was detected using anti-human IgG APC. Binding titration of test antibodies was evaluated on CD4+CD25hiFOXP3+ regulatory T cells and plotted as percent binding.

[4] = target: T2, human TNFR2 expressed on cells; assay: flow cytometry on cells expressing human TNFR2, MFI median
TNFR-Fc = target: T4, TNFR-Fc (UniProt P20333 23-257, limits assumed); assay: TNF-α blocking ELISA (soluble)
T4 construct: Printed only as TNFR-Fc; not shown: Fc part
T4 sequence (looked up): T1 sequence (looked up)

[5] = target: T5, human TNFR1-His tagged protein (human, UniProt P19438 30-211, limits assumed); assay: ELISA on coated TNFR1, OD 450 nm
T5 construct: also called soluble human TNFR1; not shown: His tag
T5 sequence (looked up): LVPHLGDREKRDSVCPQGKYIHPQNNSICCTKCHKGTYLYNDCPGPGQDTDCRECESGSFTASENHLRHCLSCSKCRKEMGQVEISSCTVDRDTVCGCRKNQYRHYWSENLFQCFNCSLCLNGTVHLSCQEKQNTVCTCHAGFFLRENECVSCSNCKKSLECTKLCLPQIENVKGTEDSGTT
Method: as §1

[6] = target: T2, human TNFR2 expressed on cells; assay: cell-based or functional assay
[7] = target: T6, herpesvirus entry mediator (HVEM) (UniProt Q92956 39-202, limits assumed); assay: ELISA on coated HVEM, OD 650 nm
T6 sequence (looked up): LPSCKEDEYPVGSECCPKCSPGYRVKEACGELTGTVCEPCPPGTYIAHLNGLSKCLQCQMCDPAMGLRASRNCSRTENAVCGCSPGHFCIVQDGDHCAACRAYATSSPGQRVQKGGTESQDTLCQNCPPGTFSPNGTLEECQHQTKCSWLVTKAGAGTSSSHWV
Method: as §1

[8] = target: T7, cynomolgus TNFR2-His tagged protein (cynomolgus, UniProt A0A2K5VET2 132-366); assay: ELISA on coated cynoTNFR2-His, OD 450 nm
T7 construct: also called Cyno TNFR2; cynomolgus TNFR2 protein; not shown: His tag
T7 sequence: T1 sequence (looked up) with S16G, S36P, P117Q, N164H, E210A, S216G, M223V

[9] = target: T3, human TNFR2-His tagged protein (soluble); assay: ELISA on coated hTNFR2-His, OD 450 nm
[10] = target: T7, cynomolgus TNFR2-His tagged protein; assay: ELISA, cynomolgus TNFR2
[11] = target: T2, human TNFR2 expressed on cells; assay: Primary Cell Affinity; binding titration on activated human Tregs, flow cytometry
Method: as §1

[12] = target: T2, human TNFR2 expressed on cells; assay: blocking of biotinylated TNF-α on TNFR2-CHO cells, flow cytometry
Method: TNFR2-overexpressing CHO cells were plated at 100,000 cells per well. Cells were incubated with the indicated antibodies for 30 minutes on ice. […] Cells were analyzed using Cytoflex or MACSQuant flow cytometer. Assay was repeated twice.

Chain of CD40 (P25942 21-193 limits assumed): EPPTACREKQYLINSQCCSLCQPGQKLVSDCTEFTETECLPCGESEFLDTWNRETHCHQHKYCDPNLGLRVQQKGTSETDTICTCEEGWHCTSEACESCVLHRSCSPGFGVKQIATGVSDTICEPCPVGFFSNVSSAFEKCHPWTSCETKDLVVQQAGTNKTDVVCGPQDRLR

B1: humanized antibody h600-25-71 (antibody, V domains shown)
VH: EVQLVESGGGLVQPGGSLRLSCAASGIDLSSYAMGWVRQAPGKGLEWVGDISTSGNAYYATWVKGRFTISRDNSKNTLYLQMNSLRAEDTAVYYCARADYGGETYAFDPWGQGTLVTVSS
VL: DIQMTQSPSSLSASVGDRVTITCQASQSISSYLNWYQQKPGKAPKLLIYSASTLASGVPSRFSGSGSGTDFTLTISSLQPEDFATYYCQQGYSDSNIDNVFGGGTKVEIK
notes: also called Ab 25-71; clone 25-71
koff [1]: 0.000553 s⁻¹ | kon [1]: 358000 M⁻¹ s⁻¹ | Kd [2]: 0.12 nM | EC50 [3]: 0.159 nM | binding result (CD40): no binding (tested: about 67 nM) | EC50 (read off the curve) [4]: ~0.3 nM | IC50 (TNFR-Fc): 1.96 nM | binding result [5]: no binding (tested: about 67 nM) | ADCC EC50 (reporter line) [6]: 1.14 nM | ADCP EC50 [6]: 0.71 nM | binding result [7]: no binding (tested: about 67 nM) | EC50 (read off the curve) [8]: ~0.1 nM | EC50 (read off the curve) [9]: ~0.2 nM | EC50 [10]: 0.123 nM | Kd [11]: 0.047 nM | IC50 [12]: 0.149 nM
